Laboratory results from PMC9599836, “Comparative Analysis of Mesophilic YqfB-Type Amidohydrolases” (Biomolecules, 2022).

How the values were obtained:
Test in all cases: purified protein
Settings in all cases: 20 mM Tris-HCl, pH 7.5, 22 °C, 0.025-0.2 mM ac4C
[1] = substrate: CC(=O)Nc1ccn([C@@H]2O[C@H](CO)[C@@H](O)[C@H]2O)c(=O)n1; format: biochemical, Buttiauxella agrestis
[2] = substrate: CC(=O)Nc1ccn([C@@H]2O[C@H](CO)[C@@H](O)[C@H]2O)c(=O)n1; format: biochemical, Shewanella loihica
[3] = substrate: CC(=O)Nc1ccn([C@@H]2O[C@H](CO)[C@@H](O)[C@H]2O)c(=O)n1

B1: BagYqfB (Buttiauxella agrestis ATCC 33320) (protein)
chain: MNDITFFQRFESDIVAGRKTITLRDVSESHFIPGQQLRVGRYEDDVYFCTIEVVSVTPVALEKLTDEHARQENMTLPELKEVIGEIYPGLTELYAIVFRLLTKSDKRVL
notes: 109 a.a; pLATE31 expression vector, E. coli HMS174 ΔpyrF ΔyqfB host
Km [1]: (3.6 ± 0.8) × 10^-5 M
kcat [1]: 154 ± 11 s⁻¹
kcat/Km [1]: 4.3e+06 ± 700000 M⁻¹ s⁻¹

B2: SloYqfB (Shewanella loihica PV-4) (protein)
chain: MTPLTYDGKITFFERFEADILSGAKTITLRDESESHFRVGDRLSVSTFETGRHFCDIQVVRVEELAFEALNSRHAVQENMTLEQLKAVITEIYGEIDTLYLIEYRLL
notes: pLATE31 expression vector, E. coli HMS174 ΔpyrF ΔyqfB host
Km [2]: (1 ± 0.2) × 10^-4 M
kcat [2]: 441 ± 37 s⁻¹
kcat/Km [2]: 4.3e+06 ± 500000 M⁻¹ s⁻¹

B3: KpnYqfB (Klebsiella pneumoniae subsp. pneumoniae MGH 78578) (protein)
chain: MQANDITFFQRFQDDILAGRKTITIRDAAESHFKPGDVLRVGRYEDDGYFCTIAVTATSTVTLDTLTEQHAQQENMTLGQLRQVISDIYPGESQFYVIEFKTL
Km [3]: (4.6 ± 0.8) × 10^-5 M
kcat [3]: 216 ± 2 s⁻¹
kcat/Km [3]: 4.8e+06 ± 800000 M⁻¹ s⁻¹
